Among the data in patent US20240398902A1 are EC50 of SEAP reporter response, HEK-Blue IFN reporter cells and MHC I (HLA I) expression, MFI by FACS against untreated 293T cells (fold increase) values, retold here.

For test [1], the target named is Type I IFN receptor (IFNAR1 and IFNAR2) on HEK-Blue 293 reporter cells (UniProt P17181). Kind of test: cell-based or functional assay.
In test [2] the target is Type II IFN receptor (IFNGR1 and IFNGR2) on HEK-Blue 293 reporter cells (UniProt P15260). Nature of the test: cell-based or functional assay.
Sequence of Type II IFN receptor (IFNGR1 and IFNGR2) on HEK-Blue 293 reporter cells (P15260 18-489 limits assumed, chain 1 of 2): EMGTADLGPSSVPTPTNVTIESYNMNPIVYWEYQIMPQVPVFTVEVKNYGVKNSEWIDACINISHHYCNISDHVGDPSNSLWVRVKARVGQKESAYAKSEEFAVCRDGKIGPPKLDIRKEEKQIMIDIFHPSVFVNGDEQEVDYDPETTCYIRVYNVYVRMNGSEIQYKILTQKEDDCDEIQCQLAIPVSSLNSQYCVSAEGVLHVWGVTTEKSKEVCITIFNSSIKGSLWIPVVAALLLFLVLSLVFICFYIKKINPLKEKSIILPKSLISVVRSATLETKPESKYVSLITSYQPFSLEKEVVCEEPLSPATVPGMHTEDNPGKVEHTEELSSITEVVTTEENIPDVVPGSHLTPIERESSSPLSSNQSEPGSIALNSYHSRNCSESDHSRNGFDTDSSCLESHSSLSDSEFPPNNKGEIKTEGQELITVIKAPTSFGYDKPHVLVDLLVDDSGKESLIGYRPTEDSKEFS
Sequence of Type II IFN receptor (IFNGR1 and IFNGR2) on HEK-Blue 293 reporter cells (P38484 22-337 limits assumed, chain 2 of 2, further chain): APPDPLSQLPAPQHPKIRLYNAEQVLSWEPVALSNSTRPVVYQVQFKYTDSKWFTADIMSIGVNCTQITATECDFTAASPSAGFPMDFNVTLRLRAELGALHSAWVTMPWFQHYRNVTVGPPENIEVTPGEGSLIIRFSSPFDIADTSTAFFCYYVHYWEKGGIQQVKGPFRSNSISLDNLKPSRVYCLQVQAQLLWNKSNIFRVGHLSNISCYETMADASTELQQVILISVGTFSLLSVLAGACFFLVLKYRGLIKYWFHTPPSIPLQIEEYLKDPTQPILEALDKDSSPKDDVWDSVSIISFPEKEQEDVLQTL

Sequence of Type I IFN receptor (IFNAR1 and IFNAR2) on HEK-Blue 293 reporter cells (P17181 28-557 limits assumed, chain 1 of 2): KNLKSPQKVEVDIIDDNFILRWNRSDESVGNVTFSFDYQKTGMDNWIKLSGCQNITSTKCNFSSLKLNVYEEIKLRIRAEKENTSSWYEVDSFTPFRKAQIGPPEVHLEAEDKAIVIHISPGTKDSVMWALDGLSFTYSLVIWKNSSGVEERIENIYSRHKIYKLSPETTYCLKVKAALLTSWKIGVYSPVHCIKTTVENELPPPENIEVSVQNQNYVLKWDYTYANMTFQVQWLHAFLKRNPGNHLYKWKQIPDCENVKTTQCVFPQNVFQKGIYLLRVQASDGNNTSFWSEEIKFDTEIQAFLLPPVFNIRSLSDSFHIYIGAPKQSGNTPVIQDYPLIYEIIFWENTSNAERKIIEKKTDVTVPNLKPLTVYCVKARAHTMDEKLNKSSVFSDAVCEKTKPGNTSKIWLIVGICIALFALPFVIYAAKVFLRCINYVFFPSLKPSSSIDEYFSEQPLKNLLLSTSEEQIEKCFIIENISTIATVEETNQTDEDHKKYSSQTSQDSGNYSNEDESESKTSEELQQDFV
Sequence of Type I IFN receptor (IFNAR1 and IFNAR2) on HEK-Blue 293 reporter cells (P48551 27-515 limits assumed, chain 2 of 2, further chain): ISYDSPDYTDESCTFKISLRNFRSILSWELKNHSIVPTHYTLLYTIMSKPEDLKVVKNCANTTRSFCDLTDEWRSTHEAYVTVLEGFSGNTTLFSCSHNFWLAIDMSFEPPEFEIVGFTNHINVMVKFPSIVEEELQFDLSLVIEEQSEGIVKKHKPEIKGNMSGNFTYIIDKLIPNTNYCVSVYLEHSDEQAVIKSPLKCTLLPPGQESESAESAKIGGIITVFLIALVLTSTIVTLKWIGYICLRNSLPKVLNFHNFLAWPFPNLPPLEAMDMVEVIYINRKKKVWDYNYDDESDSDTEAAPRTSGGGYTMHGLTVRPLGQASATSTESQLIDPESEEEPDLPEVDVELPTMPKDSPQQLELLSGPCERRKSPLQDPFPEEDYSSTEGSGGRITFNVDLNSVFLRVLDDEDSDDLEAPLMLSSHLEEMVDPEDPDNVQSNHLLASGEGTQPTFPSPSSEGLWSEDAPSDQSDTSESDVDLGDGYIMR

In test [1], “soluble IFNβ (from UniProt P01574 22-187) (ligand)” returned an EC50 of SEAP reporter response, HEK-Blue IFN reporter cells of 0.9 pM and an MHC I (HLA I) expression, MFI by FACS against untreated 293T cells (fold increase) of 9.

In the case of “soluble IFNγ (from UniProt P01579 24-166) (ligand)”, the EC50 of SEAP reporter response, HEK-Blue IFN reporter cells in test [2] turned out to be 7.1 pM.
